Experimental data taken from US20100291682, “SYSTEM FOR TRANSPOSING HYPERACTIVE RECOMBINANT DERIVATIVES OF MOS-1 TRANSPOSON” (published 2010).

T1: MBP-Mos-1 transposase (MBP-Tnp) (Drosophila mauritiana, UniProt Q7JQ07 SEQ:1-345)
T1 sequence: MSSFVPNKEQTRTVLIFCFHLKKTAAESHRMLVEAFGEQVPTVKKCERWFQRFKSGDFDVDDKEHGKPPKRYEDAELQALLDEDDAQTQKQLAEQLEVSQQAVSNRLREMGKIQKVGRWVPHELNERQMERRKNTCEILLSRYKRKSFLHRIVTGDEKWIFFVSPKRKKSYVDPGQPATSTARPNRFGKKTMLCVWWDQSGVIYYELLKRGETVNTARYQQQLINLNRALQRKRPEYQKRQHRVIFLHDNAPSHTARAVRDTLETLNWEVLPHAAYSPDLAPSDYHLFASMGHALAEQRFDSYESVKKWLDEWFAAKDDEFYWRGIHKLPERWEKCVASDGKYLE


Target: T1, MBP-Mos-1 transposase (MBP-Tnp)
Assay: EMSA
Details: complex stability versus ITR alone; MBP tag assumed

Row | Molecule | binding signal [fold]
1 | ITR3'/UTR3' | 4
2 | ITR3'/UTR5' | 4

Target: T1, MBP-Mos-1 transposase (MBP-Tnp)
Assay: EMSA; clone number to SEQ mapping not given
Details: tags: N-terminal MBP (pMalC2x); chain copies: 2

Row | Molecule | binding result
3 | ITRSelex SEQ 45 (dsDNA) DNA 1: GTCAGTGATGTCACCAACGTATGGAATATCGTAT DNA 2: ATACGATATTCCATACGTTGGTGACATCACTGAC | binds
4 | ITRSelex SEQ 44 (dsDNA) DNA 1: ATAGTGTTTAAAGCTTACT DNA 2: AGTAAGCTTTAAACACTAT | binds
5 | ITRSelex SEQ 43 (dsDNA) DNA 1: GGAGAAATGGTAGAATAGTTTA DNA 2: TAAACTATTCTACCATTTCTCC | binds
6 | ITRSelex SEQ 41 (dsDNA) DNA 1: GAAGAGTTATAACTCAAGAAAACTGAAT DNA 2: ATTCAGTTTTCTTGAGTTATAACTCTTC | binds
7 | ITRSelex SEQ 40 (dsDNA) DNA 1: GCGGGTGTGAAAATATGAAATATTCACT DNA 2: AGTGAATATTTCATATTTTCACACCCGC | binds
8 | ITRSelex SEQ 42 (dsDNA) DNA 1: CGATTACAATTATGAAAACTTTCCT DNA 2: AGGAAAGTTTTCATAATTGTAATCG | binds

Target: T1, MBP-Mos-1 transposase (MBP-Tnp)
Assay: not given
Details: active protein (Bmax) versus ITR3'; same Kd as ITR3'; inventors' prior research

Row | Molecule | binding signal [fold]
9 | Mos-1 ITR5' | 0.1
